Measured values published in patent US20200332005A1 (I MAB, published 2020).
Where a chain is given by its changes, count along the chain named. Read-outs that look alike come from different tables or passages of the source.

Experiments:
[1] = biological target: T1, recombinant human CD73 protein (human, UniProt P21589 27-547); experiment: cell-based or functional assay
T1 sequence: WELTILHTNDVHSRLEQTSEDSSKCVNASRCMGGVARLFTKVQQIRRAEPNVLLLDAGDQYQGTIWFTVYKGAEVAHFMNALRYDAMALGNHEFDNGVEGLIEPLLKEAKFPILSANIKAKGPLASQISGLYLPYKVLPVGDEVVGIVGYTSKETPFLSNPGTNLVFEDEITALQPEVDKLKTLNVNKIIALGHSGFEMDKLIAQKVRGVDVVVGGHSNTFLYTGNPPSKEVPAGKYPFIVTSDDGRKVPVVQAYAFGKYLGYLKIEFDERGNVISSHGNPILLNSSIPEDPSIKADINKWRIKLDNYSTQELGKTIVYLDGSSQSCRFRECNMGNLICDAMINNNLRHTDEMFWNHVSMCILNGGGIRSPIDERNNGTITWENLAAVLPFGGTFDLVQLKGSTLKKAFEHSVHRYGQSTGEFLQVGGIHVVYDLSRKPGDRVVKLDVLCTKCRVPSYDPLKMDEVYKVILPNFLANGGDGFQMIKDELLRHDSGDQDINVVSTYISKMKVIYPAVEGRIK

[2] = biological target: T2, human CD73 on the cell surface (human, UniProt P21589 27-549); experiment: cell-based or functional assay
T2 sequence: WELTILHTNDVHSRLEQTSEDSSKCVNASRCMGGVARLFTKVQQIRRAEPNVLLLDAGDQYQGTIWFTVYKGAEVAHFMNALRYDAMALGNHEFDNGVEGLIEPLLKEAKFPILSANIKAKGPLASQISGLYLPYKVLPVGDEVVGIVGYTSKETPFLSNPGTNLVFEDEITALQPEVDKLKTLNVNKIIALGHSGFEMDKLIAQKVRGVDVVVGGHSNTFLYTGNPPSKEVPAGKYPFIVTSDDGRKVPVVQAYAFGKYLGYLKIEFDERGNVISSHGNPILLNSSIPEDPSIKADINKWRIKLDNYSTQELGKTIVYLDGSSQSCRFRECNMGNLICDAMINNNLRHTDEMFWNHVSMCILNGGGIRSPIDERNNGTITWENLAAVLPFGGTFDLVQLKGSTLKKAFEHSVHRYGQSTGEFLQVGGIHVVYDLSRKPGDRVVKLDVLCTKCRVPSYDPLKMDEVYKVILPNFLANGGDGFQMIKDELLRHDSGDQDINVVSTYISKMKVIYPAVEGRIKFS

[3] = biological target: T2, human CD73 on the cell surface; experiment: flow cytometry on SK-OV-3 cells
Protocol: Binding was measured using an FACSCanto (Becton-Dickinson), and the results are presented in FIG. 8 (see also the table below).

[4] = biological target: T1, recombinant human CD73 protein; experiment: SPR, Biacore T200, antibody captured by anti-human Fc IgG, antigen as analyte, 1:1 model, 25 C
Protocol: For the binding assay, the Biacore T200 system was used through human antibody capture approach. The anti-human Fc lgG were immobilized on CMS sensor chip according to the manufactory's instruction. The test antibody was injected and captured by the immobilized anti-human Fc lgG. And then serial concentrations of antigen was individually injected, and the binding profile was recorded for each concentration antigen analyte, respectively. The assay system was regenerated by injection of 10 mM Glycine-HCl pH 1.5 for 30 seconds. The running buffer was HBS-EP+(10 mM HEPES, pH 7.4, 150 mM NaCl, 3 mM EDTA and 0.05% P20). The assay temperature was 25° C., and the association and dissociation time were 180 and 600 seconds, respectively.

[5] = biological target: T3, Y345A; experiment: high-throughput flow cytometry on cells expressing the CD73 variant
T3 construct: also called CD73 variant Y345A
T3 CD73 subunit: T2 sequence with Y319A
Protocol: (§1) To identify the epitope of Hu101-28, a library of clones of single amino acid-mutated CD73 variants was made. Binding of Hu101-28 Fab to each variant in the library was determined, in duplicate, by high-throughput flow cytometry. For each CD73 variant, the mean binding value was plotted as a function of CD73 expression (represented by control reactivity) on chart and critical residues were identified from the chart. Critical residues for CD73 Fab binding (outlined in red) were identified as those whose mutations were negative for test Fab binding, but positive for the control MAbs. The mean binding reactivities (and ranges) are listed for the critical residues identified in the screens, and are shown in FIG. 23.

[6] = biological target: T4, D399A; experiment: as above
T4 construct: also called CD73 variant D399A
T4 CD73 subunit: T2 sequence with D373A
Protocol: as §1

[7] = biological target: T5, E400A; experiment: as above
T5 construct: also called CD73 variant E400A
T5 CD73 subunit: T2 sequence with E374A
Protocol: as §1

[8] = biological target: T6, R401A; experiment: as above
T6 construct: also called CD73 variant R401A
T6 CD73 subunit: T2 sequence with R375A
Protocol: as §1

[9] = biological target: T3, Y345A; experiment: high-throughput flow cytometry on cells expressing the CD73 variant, in duplicate; mean (range)
Protocol: as §1

[10] = biological target: T4, D399A; experiment: as above
Protocol: as §1

[11] = biological target: T5, E400A; experiment: as above
Protocol: as §1

[12] = biological target: T6, R401A; experiment: as above
Protocol: as §1

[13] = biological target: T1, recombinant human CD73 protein; experiment: cell-based or functional assay; remark: listed apart in the source
[14] = biological target: T2, human CD73 on the cell surface; experiment: cell-based or functional assay; remark: listed apart in the source
[15] = biological target: T2, human CD73 on the cell surface; experiment: flow cytometry on SK-OV-3 cells; remark: listed apart in the source
From the text: In the right panel, human ovarian carcinoma cell line (SK-OV-3) was stained with different concentrations of Hu101-28 and analyzed for surface binding by flow cytometry.

[16] = biological target: cyno CD73 (cyno); experiment: cell-based or functional assay
[17] = biological target: T1, recombinant human CD73 protein; experiment: cell-based or functional assay; remark: listed apart in the source
[18] = biological target: T1, recombinant human CD73 protein; experiment: ELISA, recombinant human CD73 at 2 ug/ml
[19] = biological target: cyno CD73 (cyno); experiment: plate binding assay read as OD 450 against Log (nM) of antibody; text: in vitro biochemical assay
[20] = biological target: T1, recombinant human CD73 protein; experiment: as above
[21] = biological target: C-terminal of CD73; experiment: plate binding assay, axis Binding activity (OD450) against Ab (µg/ml); panel Binding to C-terminal of CD73
C-terminal of CD73, sequence (P21589 whole entry): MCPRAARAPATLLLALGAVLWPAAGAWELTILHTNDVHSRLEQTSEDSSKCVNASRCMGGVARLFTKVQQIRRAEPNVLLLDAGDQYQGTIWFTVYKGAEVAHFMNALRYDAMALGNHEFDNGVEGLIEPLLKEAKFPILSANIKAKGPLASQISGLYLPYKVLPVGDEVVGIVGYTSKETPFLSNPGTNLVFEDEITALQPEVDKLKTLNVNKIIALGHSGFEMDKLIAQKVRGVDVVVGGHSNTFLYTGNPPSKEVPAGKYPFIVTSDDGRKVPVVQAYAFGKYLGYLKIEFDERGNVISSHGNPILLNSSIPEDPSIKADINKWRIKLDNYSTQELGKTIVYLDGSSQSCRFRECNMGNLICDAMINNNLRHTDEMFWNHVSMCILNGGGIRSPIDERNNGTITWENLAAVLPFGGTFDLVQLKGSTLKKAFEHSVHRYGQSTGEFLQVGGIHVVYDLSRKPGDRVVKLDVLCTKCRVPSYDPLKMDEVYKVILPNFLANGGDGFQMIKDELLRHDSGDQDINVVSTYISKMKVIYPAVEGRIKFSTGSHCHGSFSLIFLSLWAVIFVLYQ

B1: Hu101-25 (antibody, V domains shown)
VH: EVQLQESGPGLVKPSETLSLTCAVSGYSISSGYYWNWIRQPPGKGLEWIGYINYGGSNGYNPSLKSRVTISRDTSKNQFSLKLSSVTAADTAVYYCARDYDAYYEALDDWGQGTTVTVSS
VL: EIVLSQSPATLSLSPGERATLSCRASSRVNYMHWYQQKPGQSPRPWISATSNLASGVPARFSGSGSGTSYTLTISSLEPEDFAVYYCQQWSSNPPTFGGGTKVEIK
notes: also called humanized anti-CD73 antibody Hu101-25
IC50 (nM), inhibition of recombinant CD73 enzymatic activity [1]: 4.72 nM | IC50 (nM), inhibition of CD73 enzymatic activity on SK-OV-3 cells [2]: 2.98 nM | EC50 [3]: 2.38 nM | Kd [4]: 0.747 nM | koff [4]: 5.51e-05 s⁻¹ | kon [4]: 73700 M⁻¹ s⁻¹

B2: Hu101-28 Fab (Fab, V domains shown)
VH: B1 VH with S30T, G45K, I49M, V68I
VL: B1 VL
notes: also called test Fab; CD73 Fab
binding result [5]: no binding | binding result [6]: no binding | binding result [7]: no binding | binding result [8]: no binding | Binding Reactivity (% WT) [9]: 2.7 % WT | Binding Reactivity (% WT) [10]: 1.8 % WT | Binding Reactivity (% WT) [11]: 3.6 % WT | Binding Reactivity (% WT) [12]: 1.1 % WT

B3: Hu101-28 (antibody, V domains shown)
VH: B1 VH with S30T, G45K, I49M, V68I
VL: B1 VL
notes: also called humanized anti-CD73 antibody Hu101-28
IC50, inhibition of recombinant human CD73 activity (CellTiter-Glo) [13]: 2.84 nM | IC50, inhibition of CD73 activity on MDA-MB-231 cells (CellTiter-Glo) [14]: 8.21 nM | IC50, inhibition of CD73 activity on SK-OV-3 cells (CellTiter-Glo) [14]: 2.52 nM | IC50 (nM), inhibition of recombinant CD73 enzymatic activity [1]: 9.35 nM | IC50 (nM), inhibition of CD73 enzymatic activity on SK-OV-3 cells [2]: 2.52 nM | EC50 [15]: 0.67 nM | IC50, inhibition of CD73 enzyme activity (% of residual enzyme activity) [16]: 2.22 nM | IC50, inhibition of CD73 enzyme activity (% of residual enzyme activity) [17]: 1.78 nM | EC50 [3]: 1.35 nM | EC50 [18]: 0.0887 nM | Kd [4]: 0.59 nM | koff [4]: 3.47e-05 s⁻¹ | kon [4]: 58900 M⁻¹ s⁻¹ | EC50 [19]: 0.44 nM | EC50 [20]: 0.09 nM | EC50 (read off the curve) [21]: ~0.02 µg/mL
